In the RNAGym collection of RNA variant scans (doi:10.1101/gr.219683.116):

B1: mRNA-splicing (parent)
chain: AGUUGCUGCUGGGAGCUCCAGCACAGUGAAAUGGACAGAAGGGCAGAGCAA

Variants of: B1
Assay: exon inclusion enrichment index; higher = more inclusion; WT1 exon 5 minigene, HEK293

Variant | exon inclusion enrichment index
AGUUGAAGAUCGGAGCUCCAGCACAGUGAAAUGGACAGAAGGGCAGAGCAA [C6A U7A C9A G11C] | 3.26
AGUUGAAGAAGGGCCCUCCAGCACAGUGAAAUGGACAGAAGGGCAGAGCAA [C6A U7A C9A U10A A14C G15C] | 0.452
AGUUGAAGAAGGGCUCUCCAGCACAGUGAAAUGGACAGAAGGGCAGAGCAA [C6A U7A C9A U10A A14C G15U] | 0.408
AGUUGAAGAAGGGCACUCCAGCACAGUGAAAUGGACAGAAGGGCAGAGCAA [C6A U7A C9A U10A A14C G15A] | 0.473
AGUUGAAGAAGGGAGCUCCAGCACAGUGCAAUGGACAGAAGGGCAGAGCAA [C6A U7A C9A U10A A29C] | 0.513
AGUUGAAGAAGGGAGCUCCAGCACAGUGGAAUGGACAGAAGGGCAGAGCAA [C6A U7A C9A U10A A29G] | 1.06
AGUUGAAGAAGGGAGCUCCAGCACAGUGUAAUGGACAGAAGGGCAGAGCAA [C6A U7A C9A U10A A29U] | 0.131
AGUUUCCGCCGGGAGCUCCAGCACAGUGAAAUGGACAGAAGGGCAGAGCAA [G5U U7C U10C] | 3.02
AGUUGAAGAAGGGAGCUCCAGCACAGUGACUUGGACAGAAGGGCAGAGCAA [C6A U7A C9A U10A A30C A31U] | 0.986
AGUUGAAGAAGGGAGCUCCAGCACAGUGACGUGGACAGAAGGGCAGAGCAA [C6A U7A C9A U10A A30C A31G] | 1.45
AGUUGAAGAAGGGAGCUCCAGCACAGUGACCUGGACAGAAGGGCAGAGCAA [C6A U7A C9A U10A A30C A31C] | 1.38
AGUUUCCCUUGGGAGCUCCAGCACAGUGAAAUGGACAGAAGGGCAGAGCAA [G5U U7C G8C C9U] | 0.364
AGUUGAUGCUGGGAGCUCCAGCACAGUGAAAUGGACAGAAGGGCAGAGCAA [C6A] | 0.079
AGUUGAAGAAGGGAGCUCCAGCACAGUGGUAUGGACAGAAGGGCAGAGCAA [C6A U7A C9A U10A A29G A30U] | 0.163
AGUUGAAGAAGGGAGCUCCAGCACAGUGGCAUGGACAGAAGGGCAGAGCAA [C6A U7A C9A U10A A29G A30C] | 0.273
AGUUGAAGAAGGGAGCUCCAGCACAGUGGGAUGGACAGAAGGGCAGAGCAA [C6A U7A C9A U10A A29G A30G] | 0.495
AGUUGAAGAAGGGCGCUCCAGCACAGUGAAAUGGACAGAAGGGCAGAGCAA [C6A U7A C9A U10A A14C] | 0.774
AGUUGAAGAAGGGGGCUCCAGCACAGUGAAAUGGACAGAAGGGCAGAGCAA [C6A U7A C9A U10A A14G] | 0.618
AGUUGAAGAAGGGUGCUCCAGCACAGUGAAAUGGACAGAAGGGCAGAGCAA [C6A U7A C9A U10A A14U] | 0.301
AGUUGAAGAAGGGAGCUCCAGCCUAGUGAAAUGGACAGAAGGGCAGAGCAA [C6A U7A C9A U10A A23C C24U] | 0.243
AGUUGAAGAAGGGAGCUCCAGCCAAGUGAAAUGGACAGAAGGGCAGAGCAA [C6A U7A C9A U10A A23C C24A] | 0.907
AGUUGAAGAAGGGAGCUCCAGCCGAGUGAAAUGGACAGAAGGGCAGAGCAA [C6A U7A C9A U10A A23C C24G] | 1.83
AGUUUCCGUUGGGAGCUCCAGCACAGUGAAAUGGACAGAAGGGCAGAGCAA [G5U U7C C9U] | 0.916
AGUUUCCUUUGGGAGCUCCAGCACAGUGAAAUGGACAGAAGGGCAGAGCAA [G5U U7C G8U C9U] | 0.184
AGUUGAUGAAGGGAGCUCCAGCACAGUGAAAUGGACAGAAGGGCAGAGCAA [C6A C9A U10A] | 0.333
AGUUGAUGACGGGAGCUCCAGCACAGUGAAAUGGACAGAAGGGCAGAGCAA [C6A C9A U10C] | 2.01

Variant | exon inclusion enrichment index
AGUUGAAGAAGGGAGCUCCAGCACCCUGAAAUGGACAGAAGGGCAGAGCAA [C6A U7A C9A U10A A25C G26C] | 1.25
AGUUGAAGAAGGGAGCUCCAGCACCUUGAAAUGGACAGAAGGGCAGAGCAA [C6A U7A C9A U10A A25C G26U] | 1.21
AGUUGAAGAAGGGAGCUCCAGCACCAUGAAAUGGACAGAAGGGCAGAGCAA [C6A U7A C9A U10A A25C G26A] | 1.67
AGUUUCGUUUGGGAGCUCCAGCACAGUGAAAUGGACAGAAGGGCAGAGCAA [G5U U7G G8U C9U] | 0.893
AGUUGAUCUCGGGAGCUCCAGCACAGUGAAAUGGACAGAAGGGCAGAGCAA [C6A G8C C9U U10C] | 1.43
AGUUGAAGAAGGGAGCUCCAGCACAGUGAAAUGGACAGAAGGGCAGAGCAA [C6A U7A C9A U10A] | 0.801
AGUUUCGAUUGGGAGCUCCAGCACAGUGAAAUGGACAGAAGGGCAGAGCAA [G5U U7G G8A C9U] | 1.04
AGUUGAAGAAGGGUCCUCCAGCACAGUGAAAUGGACAGAAGGGCAGAGCAA [C6A U7A C9A U10A A14U G15C] | 0.336
AGUUGAAGAAGGGUACUCCAGCACAGUGAAAUGGACAGAAGGGCAGAGCAA [C6A U7A C9A U10A A14U G15A] | 0.217
AGUUGAAGAAGGGUUCUCCAGCACAGUGAAAUGGACAGAAGGGCAGAGCAA [C6A U7A C9A U10A A14U G15U] | 0.295
AGUUGAAGAAGGGAGCUCCCGCACAGUGAAAUGGACAGAAGGGCAGAGCAA [C6A U7A C9A U10A A20C] | 0.58
AGUUGAAGAAGGGAGCUCCGGCACAGUGAAAUGGACAGAAGGGCAGAGCAA [C6A U7A C9A U10A A20G] | 1.05
AGUUGAAGAAGGGAGCUCCUGCACAGUGAAAUGGACAGAAGGGCAGAGCAA [C6A U7A C9A U10A A20U] | 0.829
AGUUUCCGACGGGAGCUCCAGCACAGUGAAAUGGACAGAAGGGCAGAGCAA [G5U U7C C9A U10C] | 2.66
AGUUGAUAACGGGAGCUCCAGCACAGUGAAAUGGACAGAAGGGCAGAGCAA [C6A G8A C9A U10C] | 0.666
AGUUGAUAAAGGGAGCUCCAGCACAGUGAAAUGGACAGAAGGGCAGAGCAA [C6A G8A C9A U10A] | 0.0495
AGUUGAAGAAGGGAGCUCCAGCACGCUGAAAUGGACAGAAGGGCAGAGCAA [C6A U7A C9A U10A A25G G26C] | 2.3
AGUUGAAGAAGGGAGCUCCAGCACGUUGAAAUGGACAGAAGGGCAGAGCAA [C6A U7A C9A U10A A25G G26U] | 1.43
AGUUGAAGAAGGGAGCUCCAGCACGAUGAAAUGGACAGAAGGGCAGAGCAA [C6A U7A C9A U10A A25G G26A] | 2.29
AGUUGAAGAAGGGGACUCCAGCACAGUGAAAUGGACAGAAGGGCAGAGCAA [C6A U7A C9A U10A A14G G15A] | 0.841
AGUUGAAGAAGGGGUCUCCAGCACAGUGAAAUGGACAGAAGGGCAGAGCAA [C6A U7A C9A U10A A14G G15U] | 0.274
AGUUGAAGAAGGGGCCUCCAGCACAGUGAAAUGGACAGAAGGGCAGAGCAA [C6A U7A C9A U10A A14G G15C] | 0.529
AGUUGAAGAAGGGAGCUCCAGCACUCUGAAAUGGACAGAAGGGCAGAGCAA [C6A U7A C9A U10A A25U G26C] | 0.956
AGUUGAAGAAGGGAGCUCCAGCACUUUGAAAUGGACAGAAGGGCAGAGCAA [C6A U7A C9A U10A A25U G26U] | 0.734
AGUUGAAGAAGGGAGCUCCAGCACUAUGAAAUGGACAGAAGGGCAGAGCAA [C6A U7A C9A U10A A25U G26A] | 0.899
